Assay results from PMC4104448.

Target: T1, Biotinylated human β-glucocerebrosidase (residues 40A-536R) (human)
T1 sequence (P04062 whole entry, looked up): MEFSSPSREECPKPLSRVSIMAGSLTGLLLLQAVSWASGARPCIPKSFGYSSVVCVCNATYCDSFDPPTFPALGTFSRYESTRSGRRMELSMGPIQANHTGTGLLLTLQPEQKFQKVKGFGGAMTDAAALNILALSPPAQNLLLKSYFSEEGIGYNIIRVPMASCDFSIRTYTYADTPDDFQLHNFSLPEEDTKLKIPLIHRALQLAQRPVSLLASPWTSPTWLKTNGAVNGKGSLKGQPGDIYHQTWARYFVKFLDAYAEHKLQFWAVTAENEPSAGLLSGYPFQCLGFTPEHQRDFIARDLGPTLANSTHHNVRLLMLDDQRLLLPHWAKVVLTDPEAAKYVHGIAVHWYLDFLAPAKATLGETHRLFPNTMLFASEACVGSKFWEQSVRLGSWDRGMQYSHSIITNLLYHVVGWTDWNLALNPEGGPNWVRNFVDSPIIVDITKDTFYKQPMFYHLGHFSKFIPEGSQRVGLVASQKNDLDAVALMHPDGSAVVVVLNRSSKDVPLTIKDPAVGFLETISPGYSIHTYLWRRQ
Test: SPR; equilibrium binding; about 1,000 RU of biotinylated ligand on a streptavidin-coupled CM5 chip, LIMP-2 as analyte; Biacore T100, 25 °C, 10 mM HEPES pH 7.5, 150 mM NaCl, 0.005% Tween 20; one-site saturation binding model

B1: Human LIMP-2 luminal domain (residues 28-431) produced from HEK293S (GnTI-) cells, with limited glycosylation (domain or fragment)
chain: VFQKAVDQSIEKKIVLRNGTEAFDSWEKPPLPVYTQFYFFNVTNPEEILRGETPRVEEVGPYTYRELRNKANIQFGDNGTTISAVSNKAYVFERDQSVGDPKIDLIRTLNIPVLTVIEWSQVHFLREIIEAMLKAYQQKLFVTHTVDELLWGYKDEILSLIHVFRPDISPYFGLFYEKNGTNDGDYVFLTGEDSYLNFTKIVEWNGKTSLDWWITDKCNMINGTDGDSFHPLITKDEVLYVFPSDFCRSVYITFSDYESVQGLPAFRYKVPAEILANTSDNAGFCIPEGNCLGSGVLNVSICKNGAPIIMSFPHFYQADERFVSAIEGMHPNQEDHETFVDINPLTGIILKAAKRFQINIYVKKLDDFVETGDIRTMVFPVMYLNESVHIDKETASRLKSMINT
modifications: N-linked P-Man9GlcNAc2 (with terminal mannose 6-phosphate) at N325; sugars on all nine N-linked glycosylation sites, limited processing
Work on B1 yielded a Kd of 1400 nM.
